B1: 19A9 scFv (scFv)
scFv: EVQLQQPGSELARPGASVKLSCKASGYTFTSYPITWVKQTTGQGLEWIGEIYPRSGNTYYNEKFKGKATLTADKSSSTAYMELRSLTSEDSAVYFCARDYYDYAGGGRGYWGQGTTLTVSSVDLKSGGSTSGSGKPGSGEGSSGSARDIVLTQSPAIMSASPGGKITITCSASSSVSYMHWFQQKPGTSPKLWIYSTSNLASGVPARFSGSGSGTSYSLTISRMEAEDAATYYCQQRSSYPYTFGGGTKLEIK
B2: 19D2 scFv (scFv)
scFv: EVQLQQSGGELARPGSSVKLSCKASGYSFTGYSLTWVKQTPGQGLEWIGEIYPRSGNTYYNENFQGKATLTADESSSTAYMELRSLTSEDSAVYFCARDFYDYDGGGRGYWGQGTTLTVSSVDLKSGGSTSGSGKPGSGEGSSGSARDIVMTQTPAIMSASPGEKVTITCSASSSVSYMHWYQQKPGTSPKLWIYSTSNLASGVPARFSGSGSGTSYSLTISRMEAEDAATYYCQQRSSYPYTFGGGTKLEIK
B3: 26B2 scFv (scFv)
scFv: DVQLQESGPELVKPGASVKISCKASGYTFADYYINWVKQSHGKSLEWIGDFNPNNGDHSYNQKFKDKATLTVDESSNTAYMELRSLTSEDSAVYYCTREFYYYFDVWGTGTSVTVSSVDLKSGGSTSGSGKPGSGEGSSGSARDIEMTQTPAIMSASPGEKVTMTCSASSSVSSRYLHWYQQKSGASPKLWIYGTSNLASGVPARFSGSGSGTSYSLTISNVEAEDAATYYCQQYHSDPLTFGAGTKLEIK
B4: 26G5 scFv (scFv)
scFv: EVQLQESGPGLAKPSQTLSLTCSVTGYSITSDYWNWIRKFPGNKLEYMGYISYSGSTYYNPSLKSRISITRDTSKNQYYLQLNSVTTEDTATYYCARSFYDGYLYFDYWGQGTTVTVSSVDLKSGGSTSGSGKPGSGEGSSGSAREIVLTQSPAILSASPGEKVTMTCSASSSVSYMYWYQQKPGSSPRLLIYDTSNLASGVPARFSGSGSGTSYSLTISRVEAEDAATYYCQQWSSYPPTFGDGTRLEIK
B5: 19D22 scFv (scFv)
scFv: QIQLLQSGAELVRPGTSVKMSCKAAGYPFTSYWMGWVKQRPGHGLEWIGDIYPGGPYTNYNEKFKGKATLTADTSSSTAYMQFSSLTSEDSAIYYCALYGQVGSYAMDYWGQGTSVTVSSVDLKSGGSTSGSGKPGSGEGSSGSARQIVLTQSPAIMSASPGEKVTMTCSASSSVSYMYWYQQKPGSSPRLLIYDTSNLASGVPVRFSGSGSGTSYSLTISRMEAEDAATYYCQQWSSYPPITFGAGTKLEIK
B6: 19B6 scFv (scFv)
scFv: QVQLQQSGAELVKPGASVKISCKASGYTFTDNYINWVKQRPGQGLEWIGWIHPGSGNAKYNEKFRAKATLTVDTSSNTAYMQLSSLTSEDSAVYFCARVGFRVNFDYWGQGTTLTVSSVDLKSGGSTSGSGKPGSGEGSSGSARQIVLTQSPAIMSASPGEKVTMTCSASSSLSYVHWYQQKPGSSPKPWIYATSNLVSGVPARFSGSRSGTSYSLTISSMEAEDAATYYCQQWSSYPPTFGAGTKLEIK
B7: 26D9 scFv (scFv)
scFv: DVQLQESGAELVKPGASVKLSCKASGFTFTDYWMHWVKQRPGQGLEWIGMIHPYNGDNNYHEKFKSKATLTVDKSSSTAYMQLSSLTTEDSAVYYCVRNDYDPYYYALDYWGQGTSLTVSAVDLKSGGSTSGSGKPGSGEGSSGSARQIVLTQSPAIMSASPGEKVTMSCRASSSVSYVYWYQQKPGSSPKPWIYRTSNLASGVPVRFSGSGSGTSYSLTISRVEAEDAATYYCQQWSSYPPTFGGGTKLEIK
B8: 18F2 scFv (scFv)
scFv: EVQLQQSGPELMKPGASVKISCKASGYAFSRSWMNWVKQRPGKGLEWIGRIYPGDGDTNYNGKFKDKASLTADTSSSTAYMQLSSLTSEDSAVYFCTKSEGYYHNLGAYWGQGTTVTVSSVDLKSGGSTSGSGKPGSGEGSSGSAREIVLTQSPAIMSASPGQKVTITCSASSSVSYMHWYQQKSGTSPKRWIYDTSKLASGVPARFSGSGSGTSYSLIISSMEAEDAATYYCQQWRSNPPTFGGGTRLEIK
B9: 18E5 scFv (scFv)
scFv: EVQLQESGPELVKPGASVKISCKASGYTFTDHNMDWVKQSLGKSLEWIGDINPNNGGAVYNQNFKGKATLTVDKSSSTAYMELRSLTSEDTAVYYCARYGYYGYFDYWGQGTTLTVSSVDLKSGGSTSGSGKPGSGEGSSGSARQIVLTQSPAIMSASPGEKVTMTCRASSSVSSSYLHWYQQKPGSSPKLWIYSTSNLASGVPARFSGSGSGTSYSLTISSVEAEDAATYYCQQYDSSPSTFGAGTKLEIK
B10: 18A6 scFv (scFv)
scFv: EVQLQQSGPELVKPGASVKISCKASGYTFTDNYINWVKQRPGQGLEWIGWIYPGSGNTKYNEKFKGKATLTVDTSSNTAYMQLTGLASDDSAVYFCARVNFYVSWDYWGQGTSVTVSSVDLKSGGSTSGSGKPGSGEGSSGSAREIVLTQSPAIMSASPGEKVTMTCSASSSISYMHWFQQKPGMSPKRRIFDTSKLASGVPARFSGSGSGTSYSLTISSMEAEDAGTYYCHQRSSYPFTFGGGTKLELK
B11: 16B3 scFv (scFv)
scFv: EVQLQQSGPELVKPGASVKITCKASGYTFTDNNMDWVKQSHGKSLEWIGDINPNNGGSIYNQKFKGKASLTLDKSSSTAYMELRSLTSEDTAVYYCARWGYYGSLAYWGQGTLVTVSSVDLKSGGSTSGSGKPGSGEGSSGSARQNVLTQSPAIMSASPGEKVTMTCSASSSVSSRYLHWYQQKSGASPKLWIYGTSNLASGVPARFSGSGSGTSYSLTISSVEAEDAATYYCQQYHSDPLTFGGGTKLEIK
B12: 18D10 scFv (scFv)
scFv: QVQLKQSGIEVMKPGASVKLSCKASGYPFTAYWIEWVKQRPGHGLEWIGEFLPGGISTNFNEKFKGKATFSADTSSNSAYIQLNSLTTEDSAIYYCVLTGTGFDYWGQGTSVTVSSVDLKSGGSTSGSGKPGSGEGSSGSARENVLTQSPAIMSASPGEKVTMTCSASSSVSYMHWYQQKSGTSPKRWIYDTSKLASGVPARFSGSGSGTSYSLTISSMEAEDAATYYCQQWSSNPLTFGAGTKLELK
B13: 26E6 scFv (scFv)
scFv: EVQLQQSGPELVKPGASVKISCKASGYTFADYYINWVKQSHGKSLEWIGDFNPNNGDHSYNQKFKDKATLTVDESSNTAYMELRSLTSEDSAVYYCTREFYYYFDVWGTGTTVTVSSVDLKSGGSTSGSGKPGSGEGSSGSARDIVMSQSPLSLPVSLGDQAFISCRFSQSIVHSNGNTYLEWYLQKPGQSPKLLIYKVSNRFSGVPDRFSGSGSGTDFTLKISRVEAEDLGVYYCFQGSHVPYTFGGGTKLEIK
B14: 8DC3 scFv (scFv, V domains shown)
VH: QVQLVQSGGGLVKPGGSLRLSCAASGFTFSSHSMNWVRQAPGKGLEWVSSISSSSSYIYYADSVKGRFTISRDNSKNSLYLQLNSLRAEDTAVYYCARGDHDFRSGYYGMDVWGQGTMVTVSS
VL: AELTQDPAVSVALGQTVRITCQGDSLRNYYASWYQQKPGQAPVLVIYGKNIRPSGIPDRFSGSSSGNTASLTITGAQAEDEADYYCNSRDSNGNHYVFGTGTKVTVL

The first assay has as its target BoNT/B2 (Clostridium botulinum). The assay can be described thus: yeast scFv FACS.
As for B1, the Kd came out at 0.88 nM.

In turn, B2 yielded a Kd of 1.85 nM.

For the molecule B3, the Kd turned out to be 5.43 nM.

Regarding B4, the Kd was 30.5 nM. This Kd is about 5.6-fold higher than that of the molecule before.

B5: the Kd amounted to 5 nM.

Regarding B6, the Kd was determined as 35.6 nM. This Kd is about 7.1-fold higher than that of the molecule before.

Molecule B7 had a Kd of 0.467 nM.

Molecule B8 came in with a Kd of 8.75 nM.

As for B9, the Kd was determined as 2.66 nM.

B10 had a dissociation constant Kd of 32.4 nM.

The molecule B11 displayed a Kd of 0.75 nM.

As to B12, the Kd was determined as 5.57 nM.

As for B13, the Kd was 17.6 nM.

For a further assay, the target named is BoNT/B4 (Clostridium botulinum). The assay can be described thus: yeast scFv FACS.
Molecule B1 registered an equilibrium dissociation constant (Kd) of 1.04 nM.

In turn, B2 returned a Kd of 1.84 nM.

In the case of B5, the Kd is 5.24 nM.

The molecule B6 yielded a Kd of 43.5 nM.

In turn, B9 yielded a Kd of 1.36 nM.

Take B10: the Kd was found to be 30.6 nM.

For B11, the Kd was 0.71 nM.

Regarding B12, the Kd came out at 4.2 nM.

The target in a further assay is BoNT/C1 or other subtypes. The assay can be described thus: yeast scFv FACS.
Take B14: the Kd was above 20 nM.

The next assay has as its target BoNT/B3 (Clostridium botulinum). The assay can be described thus: yeast scFv FACS.
With B1, the Kd turned out to be 1.18 nM.

On to B2, for which the Kd came to 1.47 nM. This Kd and that of the molecule before are within 1.5-fold of each other.

For B5, the Kd worked out at 3.77 nM.

Consider B6, for which the Kd worked out at 866 nM. Compared with the last molecule, the Kd is about 230-fold higher.

In the case of B9, the Kd worked out at 2.56 nM.

B10 showed a Kd of 27.9 nM.

B11 showed a Kd of 0.49 nM. This Kd lies about 57-fold lower than the previous one.

On to B12, for which the Kd was found to be 3.35 nM.

A word on the Kd: it is a measure of binding affinity in units of concentration.

The values above are taken from patent US20220089784A1.
